Consider 1 protein from patent publication US20210386836.

For data set [1], the target named is T1, C4-Binding protein, P04003.
T1 chain 1: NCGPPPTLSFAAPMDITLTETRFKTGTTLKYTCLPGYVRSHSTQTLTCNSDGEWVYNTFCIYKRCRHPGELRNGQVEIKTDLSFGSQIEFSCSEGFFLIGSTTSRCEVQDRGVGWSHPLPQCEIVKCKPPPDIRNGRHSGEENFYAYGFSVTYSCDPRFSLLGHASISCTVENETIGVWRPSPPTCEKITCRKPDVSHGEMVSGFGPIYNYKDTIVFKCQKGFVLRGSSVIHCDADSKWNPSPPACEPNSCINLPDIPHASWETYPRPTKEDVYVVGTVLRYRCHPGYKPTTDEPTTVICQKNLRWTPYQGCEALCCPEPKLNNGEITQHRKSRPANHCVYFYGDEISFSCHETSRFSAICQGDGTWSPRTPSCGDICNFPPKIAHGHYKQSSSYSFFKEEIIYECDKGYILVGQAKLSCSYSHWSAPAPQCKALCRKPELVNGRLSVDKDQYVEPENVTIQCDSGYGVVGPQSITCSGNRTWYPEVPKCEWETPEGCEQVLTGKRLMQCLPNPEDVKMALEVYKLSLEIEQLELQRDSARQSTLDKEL
T1 chain 2: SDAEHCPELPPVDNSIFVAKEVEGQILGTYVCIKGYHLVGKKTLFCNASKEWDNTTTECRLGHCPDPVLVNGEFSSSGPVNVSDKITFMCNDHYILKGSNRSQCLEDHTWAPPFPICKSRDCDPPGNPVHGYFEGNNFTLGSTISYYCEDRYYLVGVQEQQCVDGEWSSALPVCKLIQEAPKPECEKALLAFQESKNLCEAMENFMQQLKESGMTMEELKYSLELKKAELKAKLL

The target of another data set is T2, Factor H, P08603.
T2 chain: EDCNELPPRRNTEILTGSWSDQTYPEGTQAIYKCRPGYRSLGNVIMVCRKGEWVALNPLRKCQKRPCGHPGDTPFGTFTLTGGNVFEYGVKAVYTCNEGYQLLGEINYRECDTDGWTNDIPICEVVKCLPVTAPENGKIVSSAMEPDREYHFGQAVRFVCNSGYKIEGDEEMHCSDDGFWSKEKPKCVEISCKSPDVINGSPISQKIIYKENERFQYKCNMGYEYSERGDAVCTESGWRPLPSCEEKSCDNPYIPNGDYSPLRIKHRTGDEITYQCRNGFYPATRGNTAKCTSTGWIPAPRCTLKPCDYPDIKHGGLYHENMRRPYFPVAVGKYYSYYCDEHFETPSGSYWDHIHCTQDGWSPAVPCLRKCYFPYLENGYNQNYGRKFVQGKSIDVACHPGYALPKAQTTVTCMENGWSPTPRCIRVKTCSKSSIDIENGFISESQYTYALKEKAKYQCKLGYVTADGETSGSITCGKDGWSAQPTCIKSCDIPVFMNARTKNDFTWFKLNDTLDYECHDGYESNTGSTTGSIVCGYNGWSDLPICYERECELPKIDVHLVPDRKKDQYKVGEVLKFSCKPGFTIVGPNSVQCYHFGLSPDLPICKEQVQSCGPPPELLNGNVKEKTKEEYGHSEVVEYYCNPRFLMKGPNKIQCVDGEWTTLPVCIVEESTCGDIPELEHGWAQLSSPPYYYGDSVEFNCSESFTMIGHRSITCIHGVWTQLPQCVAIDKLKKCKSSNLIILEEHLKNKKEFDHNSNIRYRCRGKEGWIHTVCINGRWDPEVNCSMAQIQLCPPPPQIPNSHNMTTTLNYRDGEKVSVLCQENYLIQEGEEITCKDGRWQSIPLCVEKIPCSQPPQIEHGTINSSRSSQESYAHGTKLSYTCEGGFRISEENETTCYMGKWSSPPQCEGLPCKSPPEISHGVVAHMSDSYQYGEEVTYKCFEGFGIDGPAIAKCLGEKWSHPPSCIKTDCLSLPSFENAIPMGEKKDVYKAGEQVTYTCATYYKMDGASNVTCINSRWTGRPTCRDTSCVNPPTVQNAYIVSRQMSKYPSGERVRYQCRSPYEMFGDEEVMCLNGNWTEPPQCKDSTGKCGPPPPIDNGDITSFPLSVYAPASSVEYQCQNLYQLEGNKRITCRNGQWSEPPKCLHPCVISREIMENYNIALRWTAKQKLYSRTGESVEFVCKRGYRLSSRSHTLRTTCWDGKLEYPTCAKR

For a further data set, the target named is T3, human C5a, P01031.
T3 chain: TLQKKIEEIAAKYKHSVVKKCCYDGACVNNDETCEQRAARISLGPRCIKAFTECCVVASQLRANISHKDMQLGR

In another data set the target is T4, C1s, P09871.
T4 chain: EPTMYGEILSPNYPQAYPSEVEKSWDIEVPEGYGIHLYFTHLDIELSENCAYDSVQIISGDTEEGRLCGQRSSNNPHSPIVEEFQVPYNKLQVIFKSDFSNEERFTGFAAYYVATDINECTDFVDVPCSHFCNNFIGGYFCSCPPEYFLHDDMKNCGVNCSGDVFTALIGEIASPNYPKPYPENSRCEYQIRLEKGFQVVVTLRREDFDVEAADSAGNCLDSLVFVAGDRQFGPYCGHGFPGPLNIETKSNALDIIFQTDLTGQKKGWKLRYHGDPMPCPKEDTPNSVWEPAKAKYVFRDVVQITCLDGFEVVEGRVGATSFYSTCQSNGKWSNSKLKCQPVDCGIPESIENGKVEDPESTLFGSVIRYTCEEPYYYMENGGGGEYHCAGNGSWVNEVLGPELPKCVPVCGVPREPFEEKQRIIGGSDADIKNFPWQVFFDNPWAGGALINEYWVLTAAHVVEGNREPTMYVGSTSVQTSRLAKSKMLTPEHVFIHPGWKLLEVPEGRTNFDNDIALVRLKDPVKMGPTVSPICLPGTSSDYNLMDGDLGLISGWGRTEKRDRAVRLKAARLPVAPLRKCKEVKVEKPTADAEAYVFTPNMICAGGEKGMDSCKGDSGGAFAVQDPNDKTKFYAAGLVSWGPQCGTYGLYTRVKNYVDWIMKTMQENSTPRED

Chain of Factor B, P00751 (P00751 26-764): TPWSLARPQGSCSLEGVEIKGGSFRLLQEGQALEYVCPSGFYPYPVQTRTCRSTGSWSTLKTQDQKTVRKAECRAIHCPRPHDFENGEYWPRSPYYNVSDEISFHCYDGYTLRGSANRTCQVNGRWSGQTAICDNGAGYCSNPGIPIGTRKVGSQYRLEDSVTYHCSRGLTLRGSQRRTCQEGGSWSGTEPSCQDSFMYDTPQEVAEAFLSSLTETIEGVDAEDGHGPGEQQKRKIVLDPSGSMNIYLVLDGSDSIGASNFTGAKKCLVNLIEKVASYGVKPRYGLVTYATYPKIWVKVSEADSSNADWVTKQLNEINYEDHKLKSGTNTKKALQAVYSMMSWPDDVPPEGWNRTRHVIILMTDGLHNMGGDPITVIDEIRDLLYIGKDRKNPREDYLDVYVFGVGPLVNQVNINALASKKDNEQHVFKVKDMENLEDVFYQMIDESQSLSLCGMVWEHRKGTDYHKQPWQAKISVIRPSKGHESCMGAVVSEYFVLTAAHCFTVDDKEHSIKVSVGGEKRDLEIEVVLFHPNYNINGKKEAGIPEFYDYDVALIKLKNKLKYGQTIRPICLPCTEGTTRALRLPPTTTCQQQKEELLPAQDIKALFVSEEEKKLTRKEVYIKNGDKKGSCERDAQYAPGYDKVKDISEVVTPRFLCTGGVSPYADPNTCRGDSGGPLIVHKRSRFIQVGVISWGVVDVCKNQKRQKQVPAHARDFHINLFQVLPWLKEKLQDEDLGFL

B1: PrtI(ProB) (protein)
chain: AIGETSVQNVKVSVAKNESDSQKFNNSQNLEQKTPQAAAANQNGSQVQNDHTETQLQNQQTTQSQVTQAHTEENNASSIPEPANQADHVKGNVQSAWDQGYKGQNTVVAVIDSGADTSHKDFQTMPSNPKLKQEDVQSKIDQQGYGKYVNEKFPYVYNYADRDNDYIKSDDNNQXNDSPHGQHVSGIIAADGHPEGDQQYVVGVAPEAQLMQLRVFGQFSDEKTDDVARAIYDATNLGADVIQMSLGQGVADQQLTNIEQKAVQYAIDHGVFVSISASNNGNSASVDNPSKVTAKGYGSGSEAGNYEPLNSGTVANPGASKNALTVAAETSGTGKDSDMASFSSWGPLSDFSLKPDLSAPGYQVVSTVNDNQYQTMSGTSMAGPFAAGSAALVIQRLKQTNPELKGAELVAATKALLMNSAKVQTQNGYTTPVSPRRQGAGQIDVGAATANPVYVTAADGTSSLSLRQVDEKTTFTLTFHNLTDQEQSYSFNDLGGGYTEQRDPDSGVFHEVQLAGAHVNGVGNFTLAPKEVKDLQYTLDLQGLNKNQPVEGWLHFTNDKDKSTVVVPYLAYYGDLTSENVFDQNANEEKPDIQGNRFVNENNYPLGVTDQESLKQLVNVDSDYNWQEVAKLYESGKVAFSPNDDHQSDLIKPYAYLKQNVKDLKVEILDAKGNVVRVVSDVQGVDKSYDESGVTKDASLSVSMRDNPDAFEWDGKVYDTKTGQMVTAPDGQYTYRFVATLWNEGPNQKQTADFPVVVDTQAPSLSVKYDSATHTLSGNYEDKGAGFTDYSYVTVQVNDKVFGYKLNEGESGFDNSEKTKGHFNFTLSSDALDALSGSLNKVSVTLSDVANNTTVKTVDVPAVKDQPAVSVWNATEGVEFNKNSKDYNKENDTYTLYGSAAQDFYLNGALVQVRDGKYEVPVKTTTQDLVFSTDQAGKNVLKSFTTFTPKAFFNWQNVDGFDGNFGVNIYSVKTNDPNNAVVQAAVPLGKNVKAYAQDYFTGEVYKGQVENGVATFHVHTSINQGEDGIFKRALLTGWSEVDGPAYNDKQVTSKAGVASSNHLGVYYTTDKVNRKVYTDRADLGVDVQDEAADLSSFGPTAYPGHALADLTTRTDPNPAIHFDYLNDNDTTRFGQNAVTDGYYDSVTKKFTVTGHVDPEVKSLTVLGDSSDENAPQNQVKLGKDGKFSFSFTTENVGQRPVAYIYTDQNGQKVRGTLNVVLDTVAPTLNVDQVNGNELEVKTNNPLFKLSGVVNDNLDGYRLYVNGNNIYREFLNSGYNKLAGLNTDGTDVNPYGPHNFEESFNLNDDNNQPTTHVFTIYVVDQVGNKVEKKIAVNYDPDYVA
modifications: not fully specified; X: residue not identified in the source
On to B1, for which the “proteolytic activity (SDS-PAGE)” value in [1] is “None of the complement proteins tested show evidence of breakdown”; with C3, P01024 it was “None of the complement proteins tested show evidence of breakdown”; in the data set with Factor H, P08603, “None of the complement proteins tested show evidence of breakdown”; in the data set with Factor B, P00751, “None of the complement proteins tested show evidence of breakdown”; in the data set with C1s, P09871, “None of the complement proteins tested show evidence of breakdown”. Also, the “protein cleavage assay (SDS-PAGE)” value was “has activities against” with IL-3; “has activities against” with IL-17; “has activities against” with TNF-α; “has activities against” with IP-10; “has activities against” in the data set with human C5a, P01031.
